Data from patent US20080153773A1, “MODULATORS OF PHOSPHOTYROSYL PHOSPHATASE ACTIVATOR” (priority 2006, published 2008).
Residue numbers refer to the chain shown, from its start. Names may count otherwise. Blank lines part the entries; values can stand above or below the molecule they belong to.

Assays:
[1] = target: T1, PP2A A-C dimer (Homo sapiens, UniProt P67775); experiment: pNPPase activity assay; type: biochemical; settings: for stimulation of pNPPase activity of PP2A by PTPA or PTPA mutant: FIG. 6B/6C
T1 construct: GST (N); His8 (N); made in house; C subunit: baculovirus / insect cells; dimer assembled in vitro
T1 sequence (P30153 whole entry partner): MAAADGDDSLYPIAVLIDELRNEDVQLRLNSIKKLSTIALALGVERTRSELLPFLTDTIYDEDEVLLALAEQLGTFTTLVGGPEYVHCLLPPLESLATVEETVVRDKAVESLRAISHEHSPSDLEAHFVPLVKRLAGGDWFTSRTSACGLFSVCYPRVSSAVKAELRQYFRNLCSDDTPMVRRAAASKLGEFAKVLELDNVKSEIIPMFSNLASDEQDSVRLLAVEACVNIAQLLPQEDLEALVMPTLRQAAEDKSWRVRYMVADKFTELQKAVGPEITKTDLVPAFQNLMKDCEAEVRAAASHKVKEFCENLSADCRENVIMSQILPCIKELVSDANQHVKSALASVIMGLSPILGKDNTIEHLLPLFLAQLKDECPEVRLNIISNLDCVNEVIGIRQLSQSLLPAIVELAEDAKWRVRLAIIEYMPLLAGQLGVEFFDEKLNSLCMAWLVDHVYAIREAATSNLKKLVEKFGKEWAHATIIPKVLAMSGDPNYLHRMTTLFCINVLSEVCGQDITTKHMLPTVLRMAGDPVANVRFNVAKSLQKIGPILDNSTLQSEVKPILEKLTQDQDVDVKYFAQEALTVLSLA
T1 sequence (P67775 whole entry): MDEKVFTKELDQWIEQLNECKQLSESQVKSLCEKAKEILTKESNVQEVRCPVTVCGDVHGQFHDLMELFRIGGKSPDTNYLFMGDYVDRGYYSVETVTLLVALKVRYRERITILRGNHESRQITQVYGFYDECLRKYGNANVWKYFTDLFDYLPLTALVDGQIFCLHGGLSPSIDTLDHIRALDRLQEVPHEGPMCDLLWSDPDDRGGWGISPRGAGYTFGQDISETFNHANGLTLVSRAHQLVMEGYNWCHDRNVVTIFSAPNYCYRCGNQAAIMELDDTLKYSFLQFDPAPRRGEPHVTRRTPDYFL
Procedure: (§1) The phosphatase activity using pNPP as substrate was performed on a 96-well plate. Briefly, 50 μl of 50 mM pNPP dissolved in 50 mM Tris-HCl (pH 8.2) buffer containing 1 mM DTT, 10 mM MgCl2 and 0.1 mg/ml BSA was added to each well. The reaction was initiated by addition of 10 μl of PP2A samples in the presence or absence of ATP and PTPA. The plate was incubated at 37° C. for 5-20 minutes and the enzymatic reaction product was measured by the absorbance at 405 nm using a plate reader.

[2] = test system: PTPA-PP2A A-C dimer complex; experiment: ATPase activity assay (Malachite Green); type: biochemical, human; settings: for ATPase activity: with equi-molar amount of PP2A A-C dimer
Procedure: (§2) Protein samples were prepared in 100 mM NaCl, 20 mM HEPES, pH 7.5, and 2 mM dithiothreitol. The release of free phosphate group was measured by the calorimetric Malachite Green Reagent (BioAssay Systems, Hayward, Calif.) using NaH2PO4 as phosphate standard. The protein concentration was determined by a combination of OD absorption at 280 nm and Bio-Rad Protein Assay (Bio-Rad).

[3] = target: T1, PP2A A-C dimer; experiment: Phosphorylase a phosphatase assay (pSer activity); type: biochemical
Procedure: (§3) To measure the phosphatase activity of PP2A, 5 μl of each PP2A sample was added to 45 μl of 0.5 mg/ml of radio-labeled ^32P-phosphorylase b dissolved in 50 mM MOPS buffer containing 1 mM DTT and 5 mM caffeine. Reactions were performed at 37° C. for 10 minutes, and stopped by addition of 10% TCA and 0.5 mg/ml BSA. Samples were kept on ice for 10 minutes to allow complete precipitation of proteins, and were centrifuged for 10 minutes at 14K rpm. Supernatants containing the released ^32P were added to 3 ml Ecosint and the intensity was measured by scintillation counter.

[4] = target: T1, PP2A A-C dimer; experiment: Substrate preference of PP2A (phosphorylase b versus pNPP); type: biochemical; settings: for shift of substrate preference of PP2A from phosphorylase b to pNPP: PTPA mutants, FIG. 6F
Procedure: as §1, §3

[5] = target: T1, PP2A A-C dimer; experiment: Phosphotyrosine phosphatase assay using a fluorogenic peptide as the substrate; type: biochemical; settings: equi-molar PTPA and PP2A, with ATP/Mg2+, FIG. 6G
Procedure: A protein tyrosine phosphatase assay kit (EMD Biosciences) was used to measure phosphotyrosine phosphatase activity. 50 nM PP2A and PTPA, or PTPA mutants were added to a fluorogenic phosphopeptide substrate (MCA-Gly-Asp-Ala-Glu-pTyr-Ala-Ala-Lys(DNP)-Arg-NH2, 1 μM) and incubated at room temperature under very low light conditions. After 10 minutes of incubation, sodium vanadate solution was added to stop the reaction. […] The fluorescent intensity was monitored at 328 nm (excitation) and 395 nm (emission), using a Hitachi F2500 fluorescence spectrophotometer.

[6] = target: T1, PP2A A-C dimer; experiment: Native polyacrylamide gel electrophoresis (native PAGE) binding; settings: quantification of native-PAGE, FIG. 4C; read-out: dissociation constant between PP2A A-C dimer and PTPA
Procedure: All assays were performed at 4° C. to offset heat generated by electrophoresis. 6% poly-acrylamide (37.5:1 acrylamide:bis-acrylamide) gels were used under the buffer condition of 65 mM Tris, pH 8.5, and 65 mM boric acid. All protein samples were prepared in a 40 μl volume containing 25 mM Tris, pH 8.0, 150 mM NaCl, 2 mM DTT, and 5% glycerol. After pre-running the gels for 15 minutes, half of each sample (20 μl) was loaded into each lane and was subjected to electrophoresis with constant electric field of 15 volts/cm. The gels were stained using coomassie blue, destained, and dried for photography. The gels were scanned by a densitometer, which allowed the estimate of the binding affinity between WT PTPA and PP2A A-C dimer.

[7] = target: T1, PP2A A-C dimer; experiment: GST-mediated pull-down assay; type: binding; settings: FIG. 4A; mutants compared with WT PTPA
Procedure: Approximately 30 μg of stoichiometric PP2A A-C dimer were bound to 30 μl of glutathione resin via GST-A protein. The resin was washed with 200 μl assay buffer 3 times to remove excess unbound PP2A. Then 10 μg of WT or mutant PTPA were allowed to bind the resin in a 125-μl volume. After washing 4 times with an assay buffer containing 25 mM Tris, pH 8.0, 150 mM NaCl, and 2 mM dithiothreitol (DTT), the remaining protein and resin were mixed with 15-μl SDS sample buffer and applied to SDS-PAGE. The results were visualized by SDS-polyacrylamide gel electrophoresis (SDS-PAGE) with coomassie staining.

[8] = target: T2, PTPA-PP2A A-C dimer complex (Homo sapiens, UniProt Q15257); experiment: ATPase activity assay (Malachite Green); type: biochemical; settings: PTPA alone, without PP2A; 1 mM ATP and 5 mM Mg2+
T2 construct: His6 (C); GST (N); His8 (N); made in house; host or cells: PTPA: E. coli BL21(DE3), pET21b; PP2A C: baculovirus / insect cells
T2 sequence (Q15257 1-323 isoform Q15257-2): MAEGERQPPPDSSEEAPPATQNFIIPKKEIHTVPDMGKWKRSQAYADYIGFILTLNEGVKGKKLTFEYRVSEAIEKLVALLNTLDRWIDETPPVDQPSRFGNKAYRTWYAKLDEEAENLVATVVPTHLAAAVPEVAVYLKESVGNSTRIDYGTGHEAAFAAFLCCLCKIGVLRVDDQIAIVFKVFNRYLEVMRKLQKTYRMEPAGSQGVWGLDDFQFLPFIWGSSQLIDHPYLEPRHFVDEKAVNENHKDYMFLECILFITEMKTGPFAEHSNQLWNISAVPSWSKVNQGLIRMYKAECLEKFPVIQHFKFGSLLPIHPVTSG
Procedure: as §2

Molecule: C=C1[C@@H](O)[C@@H]2O[C@]3(CC[C@H](/C=C/[C@@H](C)[C@@H]4CC(C)=C[C@@]5(O[C@H](C[C@@](C)(O)C(=O)O)CC[C@H]5O)O4)O3)CC[C@H]2O[C@@H]1[C@@H](O)C[C@H](C)[C@H]1O[C@@]2(CCCCO2)CC[C@H]1C [okadaic acid, reference compound]
inhibition of PTPA/PP2A ATPase activity ([2]; FIG. 5A): inhibited

B2: V209D: missense mutant of human PTPA (protein, UniProt Q15257 2-358, looked up, variant V209D)
Serine/threonine-protein …: AEGERQPPPDSSEEAPPATQNFIIPKKEIHTVPDMGKWKRSQAYADYIGFILTLNEGVKGKKLTFEYRVSEMWNEVHEEKEQAAKQSVSCDECIPLPRAGHCAPSEAIEKLVALLNTLDRWIDETPPVDQPSRFGNKAYRTWYAKLDEEAENLVATVVPTHLAAAVPEVAVYLKESVGNSTRIDYGTGHEAAFAAFLCCLCKIGVLRDDDQIAIVFKVFNRYLEVMRKLQKTYRMEPAGSQGVWGLDDFQFLPFIWGSSQLIDHPYLEPRHFVDEKAVNENHKDYMFLECILFITEMKTGPFAEHSNQLWNISAVPSWSKVNQGLIRMYKAECLEKFPVIQHFKFGSLLPIHPVTSG
shift of substrate preference of PP2A from phosphorylase b to pNPP [4]: not observed
stimulation of pTyr phosphatase activity of PP2A (peptide substrate) [5]: did not stimulate
interaction with PP2A A-C dimer in GST-mediated pull-down [7]: significantly compromised binding
ATPase activity ([2]; 1 mM ATP and 5 mM Mg2+): significantly lower or undetectable ATPase activity

B3: G205D: missense mutant of human PTPA (protein, UniProt Q15257 2-358, looked up, variant G205D)
Serine/threonine-protein …: B2 Serine/threonine-protein … with G204D, D208V
shift of substrate preference of PP2A from phosphorylase b to pNPP [4]: not observed
stimulation of pTyr phosphatase activity of PP2A (peptide substrate) [5]: did not stimulate
interaction with PP2A A-C dimer in GST-mediated pull-down [7]: did not have a significant effect
ATPase activity ([2]; 1 mM ATP and 5 mM Mg2+): significantly lower or undetectable ATPase activity
stimulation of pNPPase activity of PP2A by PTPA or PTPA mutant ([1]; with ATP/Mg2+): do not stimulate

Now from value to molecule, other results behind:

stimulation of pNPPase activity of PP2A by ATP analog ([1]; provided to PP2A alone or in the presence of PTPA, FIG. 6B): fails to stimulate
Molecule: Nc1ncnc2c1ncn2[C@@H]1O[C@H](COP(=O)(O)OP(=O)(O)OP(O)(O)=S)[C@@H](O)[C@H]1O [ATPγS, reference compound]

effect of ATP/Mg2+ on PP2A pSer activity ([3]; with PTPA or mutants, FIG. 6D): did not effect
Molecule: ATP [ATP/Mg^2+, reference compound]

PP2A pSer/pThr activity relative to PP2A alone ([3]; about 20-to-1 molar ratio of PTPA to PP2A (maximal reduction), FIG. 6E): approximately 25%
reduction of PP2A pSer activity ([3]; equi-molar amount of WT PTPA, FIG. 6D): approximately 45%
shift of substrate preference of PP2A A-C dimer from phosphorylase b to pNPP ([4]; stoichiometric ratio of 1:1, FIG. 6F): about 10 fold
Kd [6]: ~1000 nM
interaction with PP2A A-C dimer in GST-mediated pull-down [7]: formed a stable complex
B1: phosphotyrosyl phosphatase activator (protein, UniProt Q15257 2-358, looked up)
Serine/threonine-protein …: B2 Serine/threonine-protein … with D208V
modifications: His6 tag
effect on pSer activity of PP2A in titration ([3]; titrated against a fixed amount of PP2A A-C dimer, FIG. 6E): inhibited the pSer activity of PP2A in a concentration-dependent manor
stimulation of pTyr phosphatase activity of PP2A (peptide substrate) [5]: enhanced phosphotyrosine phosphatase activity
catalytic turnover rate of ATPase activity ([2]; PTPA with equi-molar PP2A A-C dimer, 1 mM ATP and 5 mM Mg2+): approximately 2 per minute
Km ([2]; equi-molar amount of PP2A and PTPA, FIG. 5B): ~400 µM
ATPase activity ([2]; 1 mM ATP and 5 mM Mg2+): significant ATPase activity
ATPase activity [8]: did not exhibit any detectable ATPase activity
pNPPase activity of PTPA-stimulated PP2A relative to PP2A in the absence of PTPA ([1]; equi-molar concentrations, with ATP/Mg2+): approximately 6 fold
stimulation of pNPPase activity of PP2A by PTPA or PTPA mutant ([1]; with ATP/Mg2+): greatly enhanced
